We go through five proteins from article doi:10.1101/567099 (bioRxiv, 2019).

The data set “SEC” deals with the molecule itself. Nature of the data set: SEC. A general note: Size exclusion chromatography separates by hydrodynamic size, large species first.
Data set [1] deals with the molecule itself. Nature of the data set: negative-stain electron microscopy.

B1: MBP-TorsinA (human TorsinA residues 51-332, N-terminal MBP tag) (domain or fragment)
chain: GQKRSLSREALQKDLDDNLFGQHLAKKIILNAVFGFINNPKPKKPLTLSLHGWTGTGKNFVSKIIAENIYEGGLNSDYVHLFVATLHFPHASNITLYKDQLQLWIRGNVSACARSIFIFDEMDKMHAGLIDAIKPFLDYYDLVDGVSYQKAMFIFLSNAGAERITDVALDFWRSGKQREDIKLKDIEHALSVSVFNNKNSGFWHSSLIDRNLIDYFVPFLPLEYKHLKMCIRVEMQSRGYEIDEDIVSRVAEEMTFFPKEERVFSDKGCKTVFTKLDYYYDD
On to B1, for which the binding result in the data set “SEC” was “binds”.

B2: TorsinA (human, residues 51-332) after cleavage of the MBP tag with 3C protease (domain or fragment)
chain: GQKRSLSREALQKDLDDNLFGQHLAKKIILNAVFGFINNPKPKKPLTLSLHGWTGTGKNFVSKIIAENIYEGGLNSDYVHLFVATLHFPHASNITLYKDQLQLWIRGNVSACARSIFIFDEMDKMHAGLIDAIKPFLDYYDLVDGVSYQKAMFIFLSNAGAERITDVALDFWRSGKQREDIKLKDIEHALSVSVFNNKNSGFWHSSLIDRNLIDYFVPFLPLEYKHLKMCIRVEMQSRGYEIDEDIVSRVAEEMTFFPKEERVFSDKGCKTVFTKLDYYYDD
Turning to B2, the binding result in data set [1] is listed as “binds”.

B3: TorsinA K174E (human, residues 51-332) (domain or fragment)
chain: GQKRSLSREALQKDLDDNLFGQHLAKKIILNAVFGFINNPKPKKPLTLSLHGWTGTGKNFVSKIIAENIYEGGLNSDYVHLFVATLHFPHASNITLYKDQLQLWIRGNVSACARSIFIFDEMDEMHAGLIDAIKPFLDYYDLVDGVSYQKAMFIFLSNAGAERITDVALDFWRSGKQREDIKLKDIEHALSVSVFNNKNSGFWHSSLIDRNLIDYFVPFLPLEYKHLKMCIRVEMQSRGYEIDEDIVSRVAEEMTFFPKEERVFSDKGCKTVFTKLDYYYDD
Consider B3, for which the binding result in data set [1] is reported as “binds”.

B4: TorsinA H140N (human, residues 51-332) (domain or fragment)
chain: GQKRSLSREALQKDLDDNLFGQHLAKKIILNAVFGFINNPKPKKPLTLSLHGWTGTGKNFVSKIIAENIYEGGLNSDYVHLFVATLHFPNASNITLYKDQLQLWIRGNVSACARSIFIFDEMDKMHAGLIDAIKPFLDYYDLVDGVSYQKAMFIFLSNAGAERITDVALDFWRSGKQREDIKLKDIEHALSVSVFNNKNSGFWHSSLIDRNLIDYFVPFLPLEYKHLKMCIRVEMQSRGYEIDEDIVSRVAEEMTFFPKEERVFSDKGCKTVFTKLDYYYDD
Consider B4, for which the binding result in data set [1] is recorded as “binds”.

B5: TorsinA K174A (human, residues 51-332) (domain or fragment)
chain: GQKRSLSREALQKDLDDNLFGQHLAKKIILNAVFGFINNPKPKKPLTLSLHGWTGTGKNFVSKIIAENIYEGGLNSDYVHLFVATLHFPHASNITLYKDQLQLWIRGNVSACARSIFIFDEMDAMHAGLIDAIKPFLDYYDLVDGVSYQKAMFIFLSNAGAERITDVALDFWRSGKQREDIKLKDIEHALSVSVFNNKNSGFWHSSLIDRNLIDYFVPFLPLEYKHLKMCIRVEMQSRGYEIDEDIVSRVAEEMTFFPKEERVFSDKGCKTVFTKLDYYYDD
With B5, in data set [1], the binding result is “binds”.
